Experimental data taken from paper PMC7969031.

Legend:
[1] = biological target: Cas1 of the Synechocystis sp. PCC6803 type I-D CRISPR-Cas system, untagged (Synechocystis sp. PCC6803); test: crystal structure
[2] = biological target: Cas1 of the Synechocystis sp. PCC6803 type I-D CRISPR-Cas system, untagged (Synechocystis sp. PCC6803); test: negative-stain electron microscopy
[3] = biological target: Cas4 of the Synechocystis sp. PCC6803 type I-D CRISPR-Cas system, untagged (Synechocystis sp. PCC6803); test: SEC-MALS
[4] = biological target: Cas2 of the Synechocystis sp. PCC6803 type I-D CRISPR-Cas system, untagged (Synechocystis sp. PCC6803); test: crystal structure
[5] = biological target: T1, Cas1 (type I-D);Cas2 (type I-D) (Synechocystis sp. PCC6803;Synechocystis …, UniProt Q6ZEI2;Q6ZEI1 1-325;1-94, |); test: EMSA
T1 sequence 1: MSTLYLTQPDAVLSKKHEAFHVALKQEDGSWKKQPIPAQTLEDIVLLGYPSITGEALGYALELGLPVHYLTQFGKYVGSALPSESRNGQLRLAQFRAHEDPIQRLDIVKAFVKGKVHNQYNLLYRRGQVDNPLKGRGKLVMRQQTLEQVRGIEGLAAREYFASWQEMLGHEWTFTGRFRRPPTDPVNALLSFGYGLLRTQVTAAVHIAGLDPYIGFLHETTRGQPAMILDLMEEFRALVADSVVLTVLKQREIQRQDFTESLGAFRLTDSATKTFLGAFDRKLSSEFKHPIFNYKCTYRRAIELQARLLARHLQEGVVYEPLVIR
T1 sequence 2: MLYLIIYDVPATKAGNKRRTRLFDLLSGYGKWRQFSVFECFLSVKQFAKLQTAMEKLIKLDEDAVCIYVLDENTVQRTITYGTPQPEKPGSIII

[6] = biological target: T2, Cas1 (type I-D) (Synechocystis sp. PCC6803, UniProt Q6ZEI2 1-325); test: EMSA
T2 sequence: T1 sequence 1

[7] = biological target: T1, Cas1 (type I-D);Cas2 (type I-D); test: X-ray crystal structure
[8] = biological target: T1, Cas1 (type I-D);Cas2 (type I-D); test: X-ray crystal structure; remark: listed apart in the source

## Cas1 of the Synechocystis sp. PCC6803 type I-D CRISPR-Cas system, untagged (natural protein)
[1]
  stoichiometry N: 2
[2]
  stoichiometry N: 2
[3]
  stoichiometry N (Cas1 per Cas4): 2

## Cas2 of the Synechocystis sp. PCC6803 type I-D CRISPR-Cas system, untagged (natural protein)
[4]
  stoichiometry N: 2

B1: dsDNA EMSA substrate (dsDNA)
DNA 1: TGTGCCCCTGGCGGTCGCTTTCTTTTT
DNA 2: AAAAAGAAAGCGACCGCCAGGGGCACA
[5]
  binding result: binds
[6]
  binding result: binds

B2: 22-7-7 double-forked prespacer (dsDNA)
DNA 1: TTTTTTTTGTGCCCCTGGCGGTCGCTTTCTTTTTTT
DNA 2: TTTTTTTGAAAGCGACCGCCAGGGGCACATTTTTTT
[7]
  binding result: binds

B3: 26-5-5 double-forked prespacer (dsDNA)
DNA 1: TTTTTTTGTGCCCCTGGCGGTCGCTTTCAAGTTTTT
DNA 2: TTTTTCTTGAAAGCGACCGCCAGGGGCACAATTTTT
[8]
  binding result: binds
